Data published in the Human Domainome abundance scans (Beltran et al. 2025).

B1: Gamma-crystallin D, residues 90 to 170; numbered along this chain, P07320 (parent)
chain: IRLYEREDYRGQMIEFTEDCSCLQDRFRFNEIHSLNVLEGSWVLYELSNYRGRQYLLMPGDYRRYQDWGATNARVGSLRRV
B2: Myocardin-related transcription factor A, residues 341 to 383; numbered along this chain, Q969V6 (parent)
chain: GALPANLDDMKVAELKQELKLRSLPVSGTKTELIERLRAYQDQ

Variants of: B1
Assay: abundance fitness (aPCA) (normalised: wild type 0, dead -1); higher = more abundant; growth selection in yeast, the domain comes from the species named
Conditions: Homo sapiens

Abundance fitness, by site and new letter:
L3: F -0.012, P -1, R -1.02, G -0.131, V 0.076, T -0.239, S 0.122
F16: C -0.029, Q 0.033, G 0.035, S 0.035, R 0.082, V 0.034, T -0.089, H 0.052, I -0.077, M -0.115, P 0.109, D -0.163, K -0.118, E -0.018, N 0.095, W 0.143, A -0.1, Y -0.606, L 0.08
C22: L -0.049, M 0.091, D 0.089, A 0.002, G 0.019, H -0.07, K -0.134, F 0.113, E 0.056, N -0.149, P -0.104
R2: L -0.162, T -0.105, V -0.146
S21: G -0.05, Q -0.246, Y 0.069, V -0.044, I 0.004, H -0.088, C -0.054, M -0.171, D 0.044, K -0.045, F 0.017, N -0.183, A -0.023, R -0.03, W -0.099, E 0.069, P -0.215, T -0.047
Y4: E -0.881, H 0.219, W -0.192, D 0.074, N 0.02, A -0.472, R -0.22, C 0.222, G -0.683, L -0.646, V -0.82
C20: M -0.04, I -0.047, S -0.011, V -0.061, L -0.01, W 0.056, N 0.042, T 0.015, K -0.096, D 0.108, E 0.135, R 0.069, G 0.052, Y 0.3, P -0.486, H -0.104
E5: A -0.086, C -0.179, S 0.046, I 0.079, T -0.146, D -0.013, V 0.053, Y 0.167, P 0.027, W 0.154, H -0.176, K 0.112, F 0.002, Q -0.013, G -0.025, N -0.096, R 0.023, M 0.051
D8: P 0.026, C 0.05, Q 0.097, M -0.006, F 0.085, E 0.015, S -0.03, A -0.079, N -0.342, L 0.025, V -0.049, G -0.004, H -0.086, W -0.153, T -0.016, K 0.111, I -0.152, R 0.025
R10: S -0.138, Y -0.087, G -0.004, A -0.093, M -0.026, W -0.027, E 0.059, Q -0.069, D -0.118, F 0.025, C 0.046, P -1.07, N 0.077, I 0.074, K 0.226, L -0.064, T -0.034, V -0.005
M13: Q -0.115, H 0.001, A 0.08, I -0.021, T -0.122, Y -0.524, W -0.127, L 0.002, D 0.034, E -0.056, V 0.04, C -0.176, R -0.075, G 0.017, N -0.042, S 0.061, F 0.009
T17: S -0.022, L 0.001, R 0.074, C 0.007, F 0.08, A -0.177, M -0.172, G 0.016, W -0.068, D -0.012, I 0.073, K -0.061, Y 0.004, Q -0.11, E -0.089, P 0.152, N -0.001, V 0.005
E7: S 0.069, V -0.04, F -0.148, Q -0.016, A 0.001, L -0.031, R -0.043, K 0.103, G -0.095, W 0.045, M -0.029, Y -0.498, I -0.107, C -0.333
I14: K -0.092, V -0.001, A -0.401, G -0.092, F 0.019, N 0.056, P -0.825, W -0.09, L -0.106, C -0.004, S 0.107, D 0.08, Y -0.018, T -0.018, M 0.086
I1: F -0.462, L -0.1, A 0.139, N 0.12, G -0.344, M -0.021, W -1, T -0.37, V -0.094
D19: I -0.249, F 0.004, C -0.065, W -0.108, H -0.033, A -0.116, N -0.058, T 0.039, L -0.169, M -0.06, Y -0.155, R -0.129, V -0.087, K -0.144, P -0.003, S -0.115, Q 0.041, E 0.035
E18: N 0.11, W -0.142, L 0.001, R 0.048, G -0.088, S 0.04, P -0.584, C 0.05, H 0.027, D -0.08, M -0.005, V -0.004, I -0.074, T -0.035, Q 0.054, A -0.018
Y9: P -0.529, V -0.396, M 0.064, Q 0.07, G 0.06, H 0.19, D -0.076, R 0.204, E 0.082, I 0.112, W 0.036, N 0.217, F 0.104, C 0.194, S 0.175, T 0.179, K 0.001
G11: A 0.035, S -0.1, W -1.01, N -0.094, P -0.521
R6: P -1.02, D -0.172, I -0.047, F -0.262, M -0.042, Y -0.092, A 0.044, T 0.005, Q -0.066, L 0.012, S -0.01, E -0.018, N 0.153, V -0.035, G -0.011, C 0.069, H -0.124, K -0.027
E15: V -0.118, C 0.008, D -0.166, G -0.08, S -0.11, T -0.027, M -0.013, L -0.032, I -0.034, P 0.038, W -0.093, F 0.015, Y -0.135, K 0.204, A -0.065, N 0.206, R -0.084
Q12: L -0.173, F -0.192, D -0.019, W -0.176, S -0.008, M 0.062, H 0.021, G 0.04, P 0, C -0.352, E -0.105, I -0.061, N 0.102, V 0.1, T -0.041, Y 0.007, A -0.055, K 0.052

Variants of: B2
Assay: as above
Conditions: Homo sapiens

Abundance fitness: each site, then its substitutions
Q43: H -0.01, S -0.029, V 0.334, W 0.208, R 0.567, C -0.037, T 0.164, I 0.042, E 0.357
D42: T 0.037, W -0.31, S -0.017, R -0.234
